Results as given in patent US8313778B2, “Drug-delivery systems” (Evonik Roehm GmbH, priority 2005, dated 2012).
carboxyfluorescein = carboxyfluorescein label (N-terminal); fluorescein = fluorescein label

Legend:
HeLa cells [1] = type: cell-based, human; details: flow cytometry (FIG. 5)
Protocol: Cells and reagents: The human HeLa carcinoma cells used are derived from the American Type Culture Collection (Manassas, Va., USA). HeLa cells were cultured in RPMI 1640 medium with stabilized glutamine and 2.0 g/l NaHCO3 (PAN Biotech, Aidenbach, Germany) and with 10% foetal calf serum (PAN Biotech). Chlorbromazine was purchased from (Calbiochem (Bad Soden, Germany), 5-(N-ethyl-N-isopropyl)amiloride (EIPA), methyl-β-cyclodextrin (MβCD) and MTT [3-(4,5-dimethylthiazol-2-yl)-2,5-diphenyltetrazolium bromide] was purchased from Sigma (Deisenhofen, Germany).
Peptides: The peptides used were synthesized by EMC microcollections (Tübingen, Germany). The purity of all the peptides was checked by analytical HPLC. […]
Stock solution of the peptides: The peptides were taken up in DMSO to result in a 10 mM solution. […] This took place by UV/VIS spectrometry with a 1:100 dilution of the stock solution with 0.1M Tris/HCl buffer (pH 8.8), the absorption at 492 nm was measured, and carboxyfluorescein was assumed to have an extinction coefficient of 75 000 l/(mol·cm). […]
The peptides derived from human or bovine lactoferrin were prepared by solid-phase peptide synthesis. […] In order to determine whether the derived lactoferrin peptides have an activity as cell-penetrating peptides, the cell-associated fluorescence of the HeLa cells incubated with bLF peptides or hLF peptides was determined by flow cytometry. […]

HeLa cells [2] = assay: Cytotoxicity of hLF peptide, MTT test; type: cell-based, human; details: for ability of the cells to survive (MTT test): HeLa cells
Protocol: However, relatively short incubation times of less than one hour were used when observing peptide uptake in live cells. In addition, therefore, the effect of longer incubation times and higher concentrations of the peptides on the ability of the cells to survive was tested. HeLa cells were for this purpose incubated with hLF peptide at a concentration of 1.25 μM to 160 μm for 0.5 or 6 h. The vitality of the cells was then determined with an MTT test.

Question: “Fluo-FQWQRNMRKVR-CONH2 (fluorescein-FQWQRNMRKVR-NH2; listed as Homo sapiens) [LF2]” was tested. Which “uptake relative to the amount taken up of hLF peptide” value (HeLa cells [1]) did it give?
Answer: Its value is “one-tenth”.

Question: With “Fluo-FQWQRNMRKVRGPPVS-CONH2 (fluorescein-FQWQRNMRKVRGPPVS-NH2; listed as Homo sapiens) [LF1]” as the substance, how does the “uptake relative to the amount taken up of hLF peptide” value (HeLa cells [1]) read?
Answer: The value was “one-tenth”.

Question: Which “cytotoxic effects (MTT test)” value (HeLa cells [2]; HeLa cells incubated for only 30 min, up to a concentration of 40 μM (FIG. 6)) does the source give for “Fluo-KCFQWQRNMRKVRGPPVSCIKR-CONH2 (carboxyfluorescein-KCFQWQRNMRKVRGPPVSCIKR-NH2; cysteine pairing not given here; listed as Homo sapiens) [hLF peptide]” here?
Answer: Its value is “No cytotoxic effects”.

Question: And the “ability of the cells to survive (MTT test)” value (HeLa cells [2]; concentrations above 40 μM (FIG. 6))?
Answer: The value was “killed”.

Question: What about the “ability of the cells to survive (MTT test)” value (HeLa cells [2]; peptide concentration of 5 μM, after 6 h (FIG. 6)) of the same substance?
Answer: Its value is “slightly reduced”.
